Laboratory results reported in publication PMC6458997, “Deciphering the Molecular Mechanism Underpinning Phage Arbitrium Communication Systems” (Molecular Cell, 2019).
“Also recorded” adds a separate entry of the source.

Key:
SPbeta AimR operator = conditions: pH 7.5
Method: AimR binding to its operator and the inhibition induced by the arbitrium peptides were analyzed by native polyacrylamide and agarose gel electrophoresis. […] Double strand DNA primer probes were purchased from Macrogen (Table S1 and Figure 3A). Purified PCR product or purchased probes (0.4μM) and AimR (4μM) protein were mixed in EMSA buffer (50 mM HEPES pH 7.5, 5 mM MgCl2, 75 mM NaCl and 0.5 mM EDTA). The samples were incubated for 10 min at room temperature. 8% polyacrylamide gels were electrophoresed in Tris-Borate-EDTA (TBE) buffer at 100V for one hour, followed by loading of the samples. Electrophoresis was then performed in TBE buffer at 4°C for about 150 min at 100V. Agarose gels (0.8%–1.2%) were run in TAE buffer at room temperature for about 100 min at 80V. Gels were stained with RedSafe (Intron Biotechnology).

[1] = tested on: intergenic region between yopL and yopM; experiment: Nuclease protection assay (footprinting); format: binding, Bacillus subtilis SPbeta phage; conditions: 0.3 μM AimR SPbeta, 10 min room temperature; DNase I 10^−4 mg/mL, 1 min at 37°C; capillary electrophoresis
[2] = SEC-MALS, oligomeric state of AimR proteins; format: physicochemical; conditions: 5 mg/mL, Superdex 200 HR 10/300, 25 mM Tris pH 8, 250 mM NaCl
Method: SEC-MALS experiments were performed using an AKTA pure system (GE Heralthcare) coupled to a Wyatt DAWN HELEOS-II MALS instrument and a Wyatt Optilab rEX differential refractometer (Wyatt). 50 μL of the protein samples were injected at a concentration of 5 mg/mL on a Superdex 200 HR 10/300 (GE Heralthcare) column equilibrated in 25 mM Tris pH 8, 250 mM NaCl. When the effect of the peptide in the oligomeric state was tested, 1 mM peptide was added to the injected sample and the running buffer was supplemented with peptide at a final concentration of 1 μM. The Astra 7.1.2 software from the manufacturer was used for acquisition and analysis of the data.

[3] = tested on: putative AimR operators found in SPbeta genome; experiment: EMSA, AimR binding to other SPbeta operators with longer spacers; set-up: species or system Bacillus subtilis SPbeta phage; conditions: spacers of 27 and 28 bp
From the text: (§1) Gels were stained with RedSafe (Intron Biotechnology).

[4] = tested on: spacer-length-variant operators; experiment: EMSA and titration, AimR binding to spacer-length-variant operators; set-up: species or system Bacillus subtilis SPbeta phage; conditions: apo AimR; spacers 12 to 35 bp; titration with 0.125 to 1 μg AimR
From the text: as §1

SPbeta AimR D360A = experiment: Thermal shift assay, mutant AimR D360A; format: binding, Bacillus subtilis SPbeta phage; conditions: AimR^D360A versus WT AimR
Method: The thermal shift assay was conducted in a 7500 Fast Real time PCR System (Applied Biosystems). Samples of 20 μL containing 5 × Sypro Orange (Sigma-Aldrich) and 20 μM of protein in a 20 mM Tris pH 8 and 250 mM NaCl buffer were loaded in 96-well PCR plates. To calculate the apparent Kd peptide concentrations from 0 to 2 μM were added to the mixture. Samples were heated from 20 to 85°C in steps of one degree. Fluorescent intensity was plotted versus temperature and integrated with GraphPad Prism software using a Boltzmann model to calculate melting temperatures.

[5] = Size-exclusion chromatography of AimR^ΔC-ter; format: physicochemical; conditions: stop codon at position 294

| Molecule | binding to SPbeta operator or 359 bp fragment (SPbeta AimR operator) | length of sequence protected from DNase I degradation [1] | oligomeric state in solution [2] | binding to other SPbeta operators [3] | affinity / capacity to bind spacer-length-variant operators [4] | decrease in the melting temperature with respect to the WT AimR (SPbeta AimR D360A) | oligomeric state in solution (size-exclusion chromatography) [5] |
| --- | --- | --- | --- | --- | --- | --- | --- |
| SPbeta AimR: full-length AimR (residues 1-386) from the SPbeta phage, transcription factor and arbitrium receptor (protein, left off: His6, N-terminal, cleaved, full-length AimR (residues 1-386) from the SPbeta phage, transcription factor and arbitrium receptor) MELIRIAMKKDLENDNSLMNKWATVAGLKNPNPLYDFLNHDGKTFNEFSSIVNIVKSQYPDREYELMKDYCLNLDVKTKAARSALEYADANMFFEIEDVLIDSMISCSNMKSKEYGKVYKIHRELSNSVITEFEAVKRLGKLNIKTPEMNSFSRLLLLYHYLSTGNFSPMAQLIKQIDLSEISENMYIRNTYQTRVHVLMSNIKLNENSLEECREYSKKALESTNILRFQVFSYLTIGNSLLFSNYELAQENFLKGLSISVQNENYNMIFQQALCFLNNVWRKENKWINFESDSIMDLQEQAHCFINFNENSKAKEVLDKLDLLVHNDNELAMHYYLKGRLEQNKACFYSSIEYFKKSNDKFLIRLPLLELQKMGENQKLLELLLL | binds to a 359 bp fragment | 37 nt | dimeric organization | AimR binding to other SPbeta operators with longer spacers | after eliminating 2 bp AimR dramatically loses its capacity to bind the operator; also recorded: can recognize operators in which the spacer has been increased even more than 6 bp |  |  |
| AimR^D360A: SPbeta AimR residue D360 mutated to Ala (protein) MELIRIAMKKDLENDNSLMNKWATVAGLKNPNPLYDFLNHDGKTFNEFSSIVNIVKSQYPDREYELMKDYCLNLDVKTKAARSALEYADANMFFEIEDVLIDSMISCSNMKSKEYGKVYKIHRELSNSVITEFEAVKRLGKLNIKTPEMNSFSRLLLLYHYLSTGNFSPMAQLIKQIDLSEISENMYIRNTYQTRVHVLMSNIKLNENSLEECREYSKKALESTNILRFQVFSYLTIGNSLLFSNYELAQENFLKGLSISVQNENYNMIFQQALCFLNNVWRKENKWINFESDSIMDLQEQAHCFINFNENSKAKEVLDKLDLLVHNDNELAMHYYLKGRLEQNKACFYSSIEYFKKSNAKFLIRLPLLELQKMGENQKLLELLLL |  |  | dimeric in solution |  |  | 5.3 °C |  |
| AimR^N202A: SPbeta AimR residue N202 mutated to Ala (protein) MELIRIAMKKDLENDNSLMNKWATVAGLKNPNPLYDFLNHDGKTFNEFSSIVNIVKSQYPDREYELMKDYCLNLDVKTKAARSALEYADANMFFEIEDVLIDSMISCSNMKSKEYGKVYKIHRELSNSVITEFEAVKRLGKLNIKTPEMNSFSRLLLLYHYLSTGNFSPMAQLIKQIDLSEISENMYIRNTYQTRVHVLMSAIKLNENSLEECREYSKKALESTNILRFQVFSYLTIGNSLLFSNYELAQENFLKGLSISVQNENYNMIFQQALCFLNNVWRKENKWINFESDSIMDLQEQAHCFINFNENSKAKEVLDKLDLLVHNDNELAMHYYLKGRLEQNKACFYSSIEYFKKSNDKFLIRLPLLELQKMGENQKLLELLLL | able to bind DNA |  | dimeric in solution |  |  |  |  |
| AimR^ΔC-ter: AimR mutant lacking the TPR^C-ter subdomain, stop codon at position 294 (protein) MELIRIAMKKDLENDNSLMNKWATVAGLKNPNPLYDFLNHDGKTFNEFSSIVNIVKSQYPDREYELMKDYCLNLDVKTKAARSALEYADANMFFEIEDVLIDSMISCSNMKSKEYGKVYKIHRELSNSVITEFEAVKRLGKLNIKTPEMNSFSRLLLLYHYLSTGNFSPMAQLIKQIDLSEISENMYIRNTYQTRVHVLMSNIKLNENSLEECREYSKKALESTNILRFQVFSYLTIGNSLLFSNYELAQENFLKGLSISVQNENYNMIFQQALCFLNNVWRKENKWINFESD |  |  |  |  |  |  | monomeric in solution |
